Measurements reported in publication doi:10.1101/173674.
Blank lines part the entries; values can stand above or below the substance they belong to.

Experiments:
Experiment in all cases: crystal structure
[1] = target: HpiC1 native (Fischerella sp. ATCC 43239)
[2] = target: HpiC1 Y101F (Fischerella sp. ATCC 43239)
[3] = target: HpiC1 F138S (Fischerella sp. ATCC 43239)
[4] = target: HpiC1 Y101S (Fischerella sp. ATCC 43239)
[5] = target: HpiC1 Y101F/F138S (Fischerella sp. ATCC 43239)
[6] = target: HpiC1 W73M/K132M selenomethionine derivative (Fischerella sp. ATCC 43239)

Substance: HpiC1 native (enzyme)
stoichiometry N [1]: 2

Substance: HpiC1 Y101S (enzyme)
stoichiometry N [4]: 2

Substance: HpiC1 Y101F/F138S (enzyme)
stoichiometry N [5]: 2

Next, values leading:

stoichiometry N [2]: 2
Substance: HpiC1 Y101F (enzyme)

stoichiometry N [3]: 2
Substance: HpiC1 F138S (enzyme)

stoichiometry N [6]: 2
Substance: HpiC1 W73M/K132M selenomethionine derivative (enzyme)
